The data set concerns the molecule itself. As to the kind of experiment: SEC. (SEC sorts molecules by how far they enter the pores of the column.)

B1: Thermus thermophilus exonuclease I (TTHB178) (enzyme, Thermus thermophilus HB8, UniProt Q53VZ1 1-296, looked up)
chain: MAFGVSHPVALDLEATSTDPSEAEVLEVAAVDGEGRVFHRYLATQRPLPPDHEVFQLTGIPYEEYEAKKVAPKEALEELLAFLGGRPLLGHNLLRYDLPLLQRHLEEAGLPRWQGEALDTLRLAHLLFPTPPGGLEGYRLGDLYAFLLGRPLEGAHRALNDAQATLAVFHRLLDRGRRALAQHPGLVRAWRELGLPEGHLFPEDEGLIKDLLAREADVEAFFVEKEGRPFPAPTDLGPDLLPKPRPAQRIKEFVQVAHGVAGQGLVGRERPLHEVLERGLRLAVGEAEEGAVEKEG
A word on the stoichiometry N: it is a count of units in the complex or per binding partner. For B1, the “stoichiometry N” value turned out to be 2.

The record behind these values is PMC2943613 (Nucleic Acids Research, 2010).
